Reference: publication PMC3201880 (Nucleic Acids Research, 2011)
Like-named read-outs stand apart in the source and are kept apart here.

Columns and labels:
[1] = biological target: T1, TnpA-His6 (IS608 transposase) (Helicobacter pylori (IS608), UniProt Q933Z0 1-155); assay: EMSA
T1 sequence: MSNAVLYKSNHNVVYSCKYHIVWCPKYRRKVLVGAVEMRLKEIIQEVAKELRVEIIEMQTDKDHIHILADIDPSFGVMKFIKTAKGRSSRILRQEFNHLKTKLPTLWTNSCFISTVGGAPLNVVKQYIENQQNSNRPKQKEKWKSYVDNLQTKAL

[2] = biological target: T1, TnpA-His6 (IS608 transposase); assay: EMSA; remark: listed apart in the source
[3] = biological target: T1, TnpA-His6 (IS608 transposase); assay: EMSA; remark: listed apart in the source
[4] = biological target: the molecule itself; assay: cross-linking

GCTTTAGCTAGAATCCCCTAGCTTTAGCTATGGGGAGTATGTCAATTCG (ssDNA) [RE49]
binding result [1]: binds

GCTTTAGCTAGAATCCCCTAGCTTTAGCTATGGGGAGTATGTCAA (ssDNA) [RE45_pc (precleaved)]
binding result [2]: binds

B1: LE80 (ssDNA)
DNA: CGCTAGTGCAAAAATTACCAAAACTAACGCCTTAAAGCCCCTAGCTTTTAGCTATGGGGATACAAGGCGAAACGCCTTTA
binding result [3]: binds

B2: RE56 (ssDNA)
DNA: CTCATGCTTTAGCTAGAATCCCCTAGCTTTAGCTATGGGGAGTATGTCAACAAATT
binding result [2]: binds

GAATCCCCTAGCTTTAGCTATGGGGAGTATGTCAACAAATTTGCC (ssDNA) [RE45]
binding result [2]: binds

B3: RE70 (ssDNA)
DNA: TTCCTCATGCTTTAGCTAGAATCCCCTAGCTTTAGCTATGGGGAGTATGTCAACAAATTTGCCTAATGAC
binding result [3]: binds

B4: TnpA-His6 (transposase of IS608) (enzyme, Helicobacter pylori, UniProt Q933Z0 1-155, looked up)
chain: T1 sequence
stoichiometry N [4]: 2
